According to patent US7558625B2, “Combined micro-channel generation and iontophoresis for transdermal delivery of pharmaceutical agents” (TransPharma Medical Ltd., priority 2004, dated 2009):

Assays:
[1] = Transdermal delivery of hGH by ViaDerm and iontophoresis in anesthetized rats, serum hGH (Elisa); format: in vivo; conditions: for Serum hGH levels: ViaDerm, Avg.; for AUC: serum hGH, 1.5 mg hGH patch
Description: Two groups of rats were tested. […] One group was connected to a power supply (constructed in house) and the other was not. The hGH loaded patch was connected to the negative pole of the power supply.
Rats (males, 300-325 gr, Sprague Dawley) were kept under anesthesia throughout the experiment. The following experimental groups were investigated: • Group 1—Passive delivery: 3 rats were treated with ViaDerm on two adjacent sites (total area 2.8 cm^2) over which the iontophoresis patch was placed. The reference electrode assembly was placed on a shaved intact skin on the back of the anal. The power supply was not turned on. • Group 2—Iontophoresis delivery: 3 rats were treated with ViaDerm on two adjacent sites (total area 2.8 cm^2) over which the iontophoresis patch was placed. The reference electrode assembly was placed on a shaved intact skin on the back of the animal. The power supply was turned on.
ViaDenm operating parameters: Burst length—700 μsec; Voltage—330V; Number of bursts—2; Two applications on the same skin area (150 pores/cm^2); Without current limitation; 80 μm diameter electrode arrays; Current density used: 0.18 mA/cm^2.
To detect hGH levels in serum—Elisa kit (DSL Inc. Webster, Tex., USA) was used.

[2] = Transdermal delivery of hGH by ViaDerm and iontophoresis in anesthetized pigs, plasma hGH; format: in vivo; conditions: SC 0.25 mg hGH
Description: ViaDerm applications were performed on 8 adjacent sites on the marginal ear of each of the pigs using 80 μm electrodes and 2 bursts.
2 groups of pigs (males, 10-15 kg, large white) were tested: • Group 1: SC (250 μg)—3 pigs (no. 3, 9 and 25). • Group 2: ViaDerm and then iontophoresis was applied 5 times, each iontophoresis patch contained 22.5 mg (22.5×5; total of 112.5 mg)—3 pigs (no. 19, 20 and 21). Results

Substance: hGH: human growth hormone (Genotropin, Pharmacia and Upjohn)
- AUC of ViaDerm and iontophoresis versus ViaDerm only (passive delivery) [1]: 3.5 fold
- skin observation after removal of the iontophoretic patches ([1]; 0.18 mA/cm^2, end of experiment): burn marks were seen at the contact area of the electrode
- duration of hGH delivery ([1]; ViaDerm treated skin): more than 6 hours
- Serum hGH levels ([1]; Passive Patch 1.5 mg hGH, 0 h): 0.1 ng/mL
- Serum hGH levels ([1]; Passive Patch 1.5 mg hGH, 0.75 h): 5.1 ng/mL
- Serum hGH levels ([1]; Passive Patch 1.5 mg hGH, 1.5 h): 14.0 ng/mL
- Serum hGH levels ([1]; Passive Patch 1.5 mg hGH, 2.25 h): 23.3 ng/mL
- Serum hGH levels ([1]; Passive Patch 1.5 mg hGH, 3 h): 40.8 ng/mL
- Serum hGH levels ([1]; Passive Patch 1.5 mg hGH, 6 h): 34.0 ng/mL
- Serum hGH levels ([1]; Patch 1.5 mg hGH + Iontophoresis, 0 h): 0.1 ng/mL
- Serum hGH levels ([1]; Patch 1.5 mg hGH + Iontophoresis, 0.75 h): 22.7 ng/mL
- Serum hGH levels ([1]; Patch 1.5 mg hGH + Iontophoresis, 1.5 h): 61.1 ng/mL
- Serum hGH levels ([1]; Patch 1.5 mg hGH + Iontophoresis, 2.25 h): 109.8 ng/mL
- Serum hGH levels ([1]; Patch 1.5 mg hGH + Iontophoresis, 3 h): 128.9 ng/mL
- Serum hGH levels ([1]; Patch 1.5 mg hGH + Iontophoresis, 6 h): 175.1 ng/mL
- AUC ([1]; ViaDerm and iontophoresis): 637 ng·h/mL
- AUC ([1]; ViaDerm only (passive delivery)): 182 ng·h/mL
- hGH plasma levels ([2]; pig3, 0 h): 0.14 ng/mL
- hGH plasma levels ([2]; pig3, 1 h): 6.40 ng/mL
- hGH plasma levels ([2]; pig3, 2 h): 10.57 ng/mL
- hGH plasma levels ([2]; pig3, 3 h): 6.02 ng/mL
- hGH plasma levels ([2]; pig3, 4 h): 5.39 ng/mL
- hGH plasma levels ([2]; pig3, 5 h): 2.57 ng/mL
- hGH plasma levels ([2]; pig3, 6 h): 3.35 ng/mL
- hGH plasma levels ([2]; pig3, 7 h): 2.40 ng/mL
- hGH plasma levels ([2]; pig3, 8 h): 2.00 ng/mL
- hGH plasma levels ([2]; pig3, 9 h): 1.48 ng/mL
- hGH plasma levels ([2]; pig3, 10 h): 1.18 ng/mL
- hGH plasma levels ([2]; pig3, 11 h): 1.49 ng/mL
- hGH plasma levels ([2]; pig3, 12 h): 1.75 ng/mL
- hGH plasma levels ([2]; pig9, 0 h): 0.08 ng/mL
- hGH plasma levels ([2]; pig9, 1 h): 22.96 ng/mL
- hGH plasma levels ([2]; pig9, 2 h): 18.06 ng/mL
- hGH plasma levels ([2]; pig9, 3 h): 15.88 ng/mL
- hGH plasma levels ([2]; pig9, 4 h): 12.39 ng/mL
- hGH plasma levels ([2]; pig9, 5 h): 9.85 ng/mL
- hGH plasma levels ([2]; pig9, 6 h): 6.53 ng/mL
- hGH plasma levels ([2]; pig9, 7 h): 6.31 ng/mL
- hGH plasma levels ([2]; pig9, 8 h): 4.19 ng/mL
- hGH plasma levels ([2]; pig9, 9 h): 2.58 ng/mL
- hGH plasma levels ([2]; pig9, 10 h): 1.83 ng/mL
- hGH plasma levels ([2]; pig9, 11 h): 1.25 ng/mL
- hGH plasma levels ([2]; pig9, 12 h): 0.88 ng/mL
- hGH plasma levels ([2]; pig25, 0 h): 0.10 ng/mL
- hGH plasma levels ([2]; pig25, 1 h): 38.06 ng/mL
- hGH plasma levels ([2]; pig25, 2 h): 31.00 ng/mL
- hGH plasma levels ([2]; pig25, 3 h): 16.32 ng/mL
- hGH plasma levels ([2]; pig25, 4 h): 13.40 ng/mL
- hGH plasma levels ([2]; pig25, 5 h): 8.69 ng/mL
- hGH plasma levels ([2]; pig25, 6 h): 6.66 ng/mL
- hGH plasma levels ([2]; pig25, 7 h): 3.89 ng/mL
- hGH plasma levels ([2]; pig25, 8 h): 2.76 ng/mL
- hGH plasma levels ([2]; pig25, 9 h): 1.67 ng/mL
- hGH plasma levels ([2]; pig25, 10 h): 1.19 ng/mL
- hGH plasma levels ([2]; pig25, 11 h): 1.09 ng/mL
- hGH plasma levels ([2]; pig25, 12 h): 0.78 ng/mL
- hGH plasma levels ([2]; pigs, Average, 0 h): 0.1 ng/mL
- hGH plasma levels ([2]; pigs, Average, 1 h): 22.5 ng/mL
- hGH plasma levels ([2]; pigs, Average, 2 h): 19.9 ng/mL
- hGH plasma levels ([2]; pigs, Average, 3 h): 12.7 ng/mL
- hGH plasma levels ([2]; pigs, Average, 4 h): 10.4 ng/mL
- hGH plasma levels ([2]; pigs, Average, 5 h): 7.0 ng/mL
- hGH plasma levels ([2]; pigs, Average, 6 h): 5.5 ng/mL
- hGH plasma levels ([2]; pigs, Average, 7 h): 4.2 ng/mL
- hGH plasma levels ([2]; pigs, Average, 8 h): 3.0 ng/mL
- hGH plasma levels ([2]; pigs, Average, 9 h): 1.9 ng/mL
- hGH plasma levels ([2]; pigs, Average, 11 h): 1.3 ng/mL
